This is an account of results in publication PMC7347513 (Cancer Immunology, Immunotherapy : CII, 2020).

B1: biotinylated Fab F3 (Fab, V domains shown)
VH: QVQLVQSGAEVKKPGASVKVSCKASGYTFTSYYMHWVRQAPGQGLEWMGIINPSGGSTSYAQKFQGRVTMTRDTSTSTVYMELSSLRSEDTAVYYCASGITGAHDYWGQGTLVTVSS
VL: QSVVTQPPSVSGAPGQRVTISCTGSSSNIGAGYDVHWYQQLPGTAPKLLIYENSIRPSGVPDRFSGSKSGTAASLAITGLQAEDEAEYYCQSYDNSLSGPNWVFGGGTKLTVL
notes: source: E. coli TG1, biotinylated in vivo, purified (IMAC, Talon beads)
B2: Fab F3 tetramer (Fab, V domains shown)
VH: QVQLVQSGAEVKKPGASVKVSCKASGYTFTSYYMHWVRQAPGQGLEWMGIINPSGGSTSYAQKFQGRVTMTRDTSTSTVYMELSSLRSEDTAVYYCASGITGAHDYWGQGTLVTVSS
VL: QSVVTQPPSVSGAPGQRVTISCTGSSSNIGAGYDVHWYQQLPGTAPKLLIYENSIRPSGVPDRFSGSKSGTAASLAITGLQAEDEAEYYCQSYDNSLSGPNWVFGGGTKLTVL
notes: copies: 4 + 4
B3: biotinylated Fab A6 (Fab, V domains shown)
VH: EVQLVQSGAEVKKPGASVKVSCKASGYTFTSYYMHWVRQSPGQGLEWMGIINPSGGSTSYAQKFQGRVTMTRDTSTSTVYMELSSLRSEDTAVYYCARNGYCSSTSCYDAFDIWGQGTMVTVSS
VL: QSALTQPASVSGSPGQSITISCTGTSSDVGGYNYVSWYQQHPGKAPKVLIYDVNQRISGVPDRFSGSKSGNTASLTISGLQAEDEADYYCCSYAGSSSWVFGGGTRLTVL
notes: as for B1
B4: Fab A6 tetramer (Fab, V domains shown)
VH: EVQLVQSGAEVKKPGASVKVSCKASGYTFTSYYMHWVRQSPGQGLEWMGIINPSGGSTSYAQKFQGRVTMTRDTSTSTVYMELSSLRSEDTAVYYCARNGYCSSTSCYDAFDIWGQGTMVTVSS
VL: QSALTQPASVSGSPGQSITISCTGTSSDVGGYNYVSWYQQHPGKAPKVLIYDVNQRISGVPDRFSGSKSGNTASLTISGLQAEDEADYYCCSYAGSSSWVFGGGTRLTVL
notes: copies: 4 + 4
B5: biotinylated Fab C1 (Fab, V domains shown)
VH: EVQLVQSGAEVKKPGSSVKVSCKASGGTFSSYAISWVRQAPGQGLEWMGGIIPIFGTANYAQKFQGRVTITADESTSTAYMELSSLRSEDTAVYYCARGLAAPDYFDYWGQGTLVTVSS
VL: QSVVTQPPSVSGAPGQRVTISCTGSSSNIGAGYDVHWYQQLPGTAPKLLIYGNSNRPSGVPDRFSGSKSGTSASLAITGLQAEDEADYYCQSYDSSLSGPFYVFGTGTKVTVL
notes: as for B1
B6: Fab C1 tetramer (Fab, V domains shown)
VH: EVQLVQSGAEVKKPGSSVKVSCKASGGTFSSYAISWVRQAPGQGLEWMGGIIPIFGTANYAQKFQGRVTITADESTSTAYMELSSLRSEDTAVYYCARGLAAPDYFDYWGQGTLVTVSS
VL: QSVVTQPPSVSGAPGQRVTISCTGSSSNIGAGYDVHWYQQLPGTAPKLLIYGNSNRPSGVPDRFSGSKSGTSASLAITGLQAEDEADYYCQSYDSSLSGPFYVFGTGTKVTVL
notes: copies: 4 + 4
B7: biotinylated Fab A11 (Fab, V domains shown)
VH: EVQLVQSGAEVKRPGASVKVSCKASGYTFTSYGIGWVRQAPGQGLEWMGWISAYSGNTNYAQNFQGRITMTTDTSTSTAYMELRSLRSDDTAVYYCARDFGKWDLPMYGMDVWGQGTTVTVSS
VL: QSVLTQPPSVSVAPGGTARISCGGNNIGTKNVHWYQQKPGQAPVLVMYYNSDRPAGIPERFSGSNSGNTATLTITRVEPGDEADYYCQVWDDRRDHYVFGTGTEVTVL
notes: as for B1
B8: biotinylated Fab A9 (Fab, V domains shown)
VH: EVQLVQSGAEVRNPGASVKVSCKASGYTFTSHGINWLRQAPGQGLEWMGWISAYSGNTNYAQNLQDRVSMTTDTSTSTAYMELRSLRSDDTAVYYCARDFGKWDLPMYGMDVWGQGTTVTVSS
VL: QSVLTQPPSVSAAPGQRVTISCSGSSSDIGKSGKNYVAWYQQLPGMAPKLLIHDTIKRPSGIPDRFSASKSGTSATLDITGLQTGDEGDYYCGTWNNNLSAYVFGTGTTITVL
notes: as for B1

For one assay, the target named is T1, HLA A*0101 presenting HCMV pp65 peptide […] on cells (human HLA-A*01:01 and B2M; HCMV pp65 …, strain).
T1 construct: copies: + +
As to the kind of experiment: flow cytometry on cells. The conditions noted are these: one partner purified. A general note: A flow cytometer gives signals particle by particle.
For B1, the binding result is “binds”. On the same count and under the same terms, next, B2: “binds”. The same measure, in the same setting: next, B3: “binds”. For B4, the binding result is on record as “binds”.

For a further assay, the target named is T2, HLA A*0201 presenting HCMV pp65 peptide […] on cells (human HLA-A*02:01 and B2M; HCMV pp65 …, strain).
T2 construct: copies: + +
Briefly: flow cytometry on cells. The settings on record: one partner purified.
Turning to B5, the binding result is listed as “binds”. Turning to B6, the binding result is given as “binds”. Regarding B7, the binding result is “binds”. For the molecule B8, the binding result is “binds”.
